B1: DVD521 (bispecific antibody, human IgG1, kappa, lambda, L234A L235A)
heavy: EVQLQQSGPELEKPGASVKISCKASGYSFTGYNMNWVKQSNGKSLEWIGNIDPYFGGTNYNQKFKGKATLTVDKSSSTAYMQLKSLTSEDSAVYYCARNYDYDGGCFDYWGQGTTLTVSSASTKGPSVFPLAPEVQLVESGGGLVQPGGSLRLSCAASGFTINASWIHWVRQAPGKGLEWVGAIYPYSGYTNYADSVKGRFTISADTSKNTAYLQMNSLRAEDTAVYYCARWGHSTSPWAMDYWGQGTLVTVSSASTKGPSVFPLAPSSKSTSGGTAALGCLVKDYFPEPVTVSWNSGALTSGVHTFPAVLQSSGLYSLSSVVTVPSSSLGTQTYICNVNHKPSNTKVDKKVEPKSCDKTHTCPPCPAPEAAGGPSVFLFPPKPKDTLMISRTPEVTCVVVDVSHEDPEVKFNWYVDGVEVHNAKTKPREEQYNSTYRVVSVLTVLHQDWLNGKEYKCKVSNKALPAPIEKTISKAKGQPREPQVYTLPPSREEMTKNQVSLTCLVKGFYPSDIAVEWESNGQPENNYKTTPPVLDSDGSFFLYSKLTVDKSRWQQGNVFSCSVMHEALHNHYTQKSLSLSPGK
light: QAVVTQESALTTSPGETVTLTCRSSTGAVTTSNYANWVQEKPDHLFTGLIGGTNNRAPGVPARFSGSLIGDKAALTITGAQTEDEAIYFCALWYSNHWVFGGGTKLTVLGQPKAAPSVTLFPPDIQMTQSPSSLSASVGDRVTITCRASQVIRRSLAWYQQKPGKAPKLLIYAASNLASGVPSRFSGSGSGTDFTLTISSLQPEDFATYYCQQSNTSPLTFGQGTKVEIKRTVAAPSVFIFPPSDEQLKSGTASVVCLLNNFYPREAKVQWKVDNALQSGNSQESVTEQDSKDSTYSLSSTLTLSKADYEKHKVYACEVTHQGLSSPVTKSFNRGEC
notes: DVD-Ig; outer AB073 (DLL4), inner AB071 (VEGF); HC long, LC long linker; also called DVD521H; DVD521L
B2: DVD497 (bispecific antibody, human IgG1, kappa)
heavy: not shown
light: DIQMTQSSSYLSVSLGGRVTITCKASDHINNWLAWYQQKPGNAPRLLISGATSLETGVPSRFSGSGSGKDYTLSITSLQTEDVATYYCQQYWSIPLTFGAGTKLELKRTVAAPSVFIFPPDIQMTQSPSSLSASVGDRVTITCRASQVIRRSLAWYQQKPGKAPKLLIYAASNLASGVPSRFSGSGSGTDFTLTISSLQPEDFATYYCQQSNTSPLTFGQGTKVEIKRTVAAPSVFIFPPSDEQLKSGTASVVCLLNNFYPREAKVQWKVDNALQSGNSQESVTEQDSKDSTYSLSSTLTLSKADYEKHKVYACEVTHQGLSSPVTKSFNRGEC
notes: DVD-Ig; outer AB072 (DLL4), inner AB071 (VEGF); HC long, LC long linker; also called DVD497H; DVD497L
B3: DVD479 (bispecific antibody, human IgG1, kappa)
heavy: not shown
light: DIQMTQSPSSLSASVGDRVTITCRASQDVSTAVAWYQQKPGKAPKLLIYSASFLYSGVPSRFSGSGSGTDFTLTISSLQPEDFATTYYCQQSYTGTVTFGQGTKVEIKRTVAAPDIQMTQSPSSLSASVGDRVTITCRASQVIRRSLAWYQQKPGKAPKLLIYAASNLASGVPSRFSGSGSGTDFTLTISSLQPEDFATYYCQQSNTSPLTFGQGTKVEIKRTVAAPSVFIFPPSDEQLKSGTASVVCLLNNFYPREAKVQWKVDNALQSGNSQESVTEQDSKDSTYSLSSTLTLSKADYEKHKVYACEVTHQGLSSPVTKSFNRGEC
notes: DVD-Ig; outer AB015 (DLL4), inner AB071 (VEGF); HC long, LC short linker; also called DVD479H; DVD479L
B4: DVD491 (bispecific antibody, human IgG1, kappa)
heavy: not shown
light: DIQMTQSSSYLSVSLGGRVTITCKASDHINNWLAWYQQKPGNAPRLLISGATSLETGVPSRFSGSGSGKDYTLSITSLQTEDVATYYCQQYWSIPLTFGAGTKLELKRTVAAPDIQMTQSPSSLSASVGDRVTITCRASQVIRRSLAWYQQKPGKAPKLLIYAASNLASGVPSRFSGSGSGTDFTLTISSLQPEDFATYYCQQSNTSPLTFGQGTKVEIKRTVAAPSVFIFPPSDEQLKSGTASVVCLLNNFYPREAKVQWKVDNALQSGNSQESVTEQDSKDSTYSLSSTLTLSKADYEKHKVYACEVTHQGLSSPVTKSFNRGEC
notes: DVD-Ig; outer AB072 (DLL4), inner AB071 (VEGF); HC short, LC short linker; also called DVD491H; DVD491L
B5: DVD451 (bispecific antibody, human IgG1, kappa, L234A L235A)
heavy: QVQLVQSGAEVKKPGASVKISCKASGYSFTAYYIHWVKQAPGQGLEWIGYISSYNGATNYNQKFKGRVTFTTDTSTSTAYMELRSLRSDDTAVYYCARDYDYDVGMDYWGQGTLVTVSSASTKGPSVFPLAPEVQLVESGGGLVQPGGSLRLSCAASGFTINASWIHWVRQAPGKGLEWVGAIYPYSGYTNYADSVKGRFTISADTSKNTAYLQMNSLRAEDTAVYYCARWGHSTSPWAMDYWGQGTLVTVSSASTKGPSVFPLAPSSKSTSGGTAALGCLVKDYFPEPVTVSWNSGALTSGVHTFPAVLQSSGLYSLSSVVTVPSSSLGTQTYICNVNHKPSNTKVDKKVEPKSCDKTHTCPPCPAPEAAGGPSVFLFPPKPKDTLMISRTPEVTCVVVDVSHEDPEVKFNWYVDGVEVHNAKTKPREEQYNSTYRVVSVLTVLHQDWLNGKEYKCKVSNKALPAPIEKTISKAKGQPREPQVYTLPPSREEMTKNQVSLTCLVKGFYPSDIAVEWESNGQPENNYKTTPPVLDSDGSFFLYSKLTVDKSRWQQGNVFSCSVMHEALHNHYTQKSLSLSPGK
light: DIVMTQSPDSLAVSLGERATISCRASESVDNYGISFMKWFQQKPGQPPKLLIYAASNQGSGVPDRFSGSGSGTDFTLTISSLQAEDVAVYYCQQSKEVPWTFGGGTKVEIKRTVAAPSVFIFPPDIQMTQSPSSLSASVGDRVTITCRASQVIRRSLAWYQQKPGKAPKLLIYAASNLASGVPSRFSGSGSGTDFTLTISSLQPEDFATYYCQQSNTSPLTFGQGTKVEIKRTVAAPSVFIFPPSDEQLKSGTASVVCLLNNFYPREAKVQWKVDNALQSGNSQESVTEQDSKDSTYSLSSTLTLSKADYEKHKVYACEVTHQGLSSPVTKSFNRGEC
notes: DVD-Ig; outer AB069 (DLL4), inner AB071 (VEGF); HC long, LC long linker; also called DVD451H; DVD451L
B6: DVD473 (bispecific antibody, human IgG1, kappa)
heavy: not shown
light: DIQMTQSPSSLSASVGDRVTITCRASQDVSTAVAWYQQKPGKAPKLLIYSASFLYSGVPSRFSGSGSGTDFTLTISSLQPEDFATTYYCQQSYTGTVTFGQGTKVEIKRTVAAPSVFIFPPDIQMTQSPSSLSASVGDRVTITCRASQVIRRSLAWYQQKPGKAPKLLIYAASNLASGVPSRFSGSGSGTDFTLTISSLQPEDFATYYCQQSNTSPLTFGQGTKVEIKRTVAAPSVFIFPPSDEQLKSGTASVVCLLNNFYPREAKVQWKVDNALQSGNSQESVTEQDSKDSTYSLSSTLTLSKADYEKHKVYACEVTHQGLSSPVTKSFNRGEC
notes: DVD-Ig; outer AB015 (DLL4), inner AB071 (VEGF); HC long, LC long linker; also called DVD473H; DVD473L

Experiments:
[1] = biological target: T1, DLL4 ECD/His tag (R&D 1506-D4-050) (UniProt Q9NR61 27-529); assay: direct bind ELISA, DLL4 on plate; DLL4 VD N-term.; HC Long, LC Long
T1 construct: extracellular domain; Bought antigen coated on the ELISA plate; not shown: His tag

[2] = biological target: T1, DLL4 ECD/His tag (R&D 1506-D4-050); assay: direct bind ELISA, DLL4 on plate; DLL4 VD N-term.; HC Long, LC Short
Procedure: (§1) Enzyme Linked Immunosorbent Assays to screen for antibodies that bind a desired target antigen were performed as follows. […] Plates were washed four times with PBS containing 0.02% Tween 20. Plates were blocked by the addition of 300 μL/well blocking solution (non-fat dry milk powder, various retail suppliers, diluted to 2% in PBS) for ½ hour at room temperature. Plates were washed four times after blocking with PBS containing 0.02% Tween 20.
(§2) Alternatively, one hundred microliters per well of 10 μg/ml of Histidine (His) tagged desired target antigen (R&D Systems, Minneapolis, Minn.) was added to ELISA plates coated with monoclonal mouse anti-polyHistidine antibody as described above and incubated for 1 hour at room temperature. Wells were washed four times with PBS containing 0.02% Tween 20.
One hundred microliters of antibody or DVD-Ig preparations diluted in blocking solution as described above was added to the desired target antigen plate or desired target antigen/FC fusion plate or the anti-polyHistidine antibody/His tagged desired target antigen plate prepared as described above and incubated for 1 hour at room temperature. Wells are washed four times with PBS containing 0.02% Tween 20.

[3] = biological target: T1, DLL4 ECD/His tag (R&D 1506-D4-050); assay: direct bind ELISA, DLL4 on plate; DLL4 VD N-term.; HC Short, LC Short
Procedure: as §1, §2
Plates were washed 4 times with PBS containing 0.02% Tween 20.

Binder	EC50 [1]	further results
B1	0.26 nM	
B2	0.53 nM	
B3		EC50 [2]: 1.69 nM
B4		EC50 [3]: 0.39 nM
B5	0.4 nM	
B6	1.8 nM	

Source: US20100260668A1 (published 2010)
